The target in assay [1] is T1, recombinant human GFRα2-Fc chimera (R&D Systems) (human, UniProt O00451 22-441).
T1 construct: Bought reagent; also called GFRalpha2-Fc fusion protein; soluble recombinant GFRα2-Fc chimera; not shown: Fc portion of human IgG1
T1 sequence (looked up): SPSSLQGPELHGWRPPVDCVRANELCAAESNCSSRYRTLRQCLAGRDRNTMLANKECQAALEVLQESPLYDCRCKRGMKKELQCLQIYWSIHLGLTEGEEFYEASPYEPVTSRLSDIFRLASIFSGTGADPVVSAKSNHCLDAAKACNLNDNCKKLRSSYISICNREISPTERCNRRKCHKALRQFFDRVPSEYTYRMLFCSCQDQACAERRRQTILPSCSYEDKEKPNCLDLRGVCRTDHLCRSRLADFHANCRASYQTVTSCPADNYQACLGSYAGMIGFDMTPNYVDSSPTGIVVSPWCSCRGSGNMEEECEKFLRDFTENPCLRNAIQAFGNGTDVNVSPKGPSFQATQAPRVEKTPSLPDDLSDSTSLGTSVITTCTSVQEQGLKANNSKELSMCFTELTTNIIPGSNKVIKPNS
In words: precipitation from CHO medium with GFRα2-Fc and Protein G-Sepharose, western blot. As for the experimental part:
An aliquot of each media (400 μl) was incubated with recombinant human GFRα2-Fc chimera (0.4 μg, R&D Systems), antibodies to the V5-epitope (0.4 μg, Invitrogen) or antibodies to NRTN (0.4 μg, R&D Systems) for 1 h at +4° C. with mixing. Protein G has a strong affinity for antibodies from mouse and goat as well as for the Fc portion of human IgG₁ in the recombinant GFRα2-Fc chimera. Therefore Protein G-Sepharose was added to the samples and the incubation was continued for 1 h at +4° C. with mixing. After pelleting, the samples were eluted from the protein G-Sepharose with reducing Laemmli buffer and loaded on SDS-PAGE. For Western blot analysis of the V5-tagged variants of NRTN, an anti-V5 antibody (Invitrogen) was used with samples loaded on SDS-PAGE under reducing conditions. For Western blot analysis of the untagged variants of NRTN, an anti-NRTN antibody (R&D Systems) was used with samples loaded on SDS-page under non-reducing conditions.

Assay [2] concerns the target T1, recombinant human GFRα2-Fc chimera (R&D …). In words: capture on GFRα2-Fc held on Protein G spin column (after heparin column enrichment), 1.0 M NaCl wash, elution with 2.0 M MgCl2; eluate on non-reducing 15% SDS-PAGE, Coomassie stain. On the procedure:
Media from NRTN-expressing CHO cells (QMCF Technology at Icosagen Ltd) was thawed at room temperature. HITRAP™ Heparin HP columns (1 ml, GE Healthcare) were equilibrated with 10 ml of 10 mM Hepes, pH 7.2 and 1-10 ml of undiluted media was applied with a syringe according to the manufacturer's instructions. The media was collected and run through the column a second time. The columns were washed with 10 ml of 0.2 M NaCl in 10 mM Hepes, pH 7.2. The NRTN enriched samples were eluted with 5×600 μl of 10 mM Hepes pH 7.2, 1.2 M NaCl. Fractions number two and three were collected and concentrated to a final volume of 50-65 μl, according to the manufacturer's instruction in AmiconUltra 0.5 ml 10K concentrators (Millipore). The samples were then diluted 1:10 with 10 mM Hepes pH 7.2 to a final concentration of NaCl around 120 mM. Soluble recombinant GFRα2-Fc chimera (10-200 μg, R&D Systems) was attached to Protein G HP SpinTrap columns (GE Healthcare) in PBS according to the manufacturer's instructions. The 1:10 diluted samples were added to the GFRα2 columns and incubated for at least one hour at +4° C. with mixing. The columns were first washed with 4×400 μl of cold 10 mM Hepes pH 7.2, 1.0 M NaCl and thereafter with 4×400 μl of cold 10 mM Hepes pH 7.2, 0.1 M NaCl. The NRTN samples were eluted with 5×200 μl of pre-warmed (25° C.) 10 mM Hepes pH 7.2, 2.0 M MgCl₂. The eluted fractions were immediately diluted (1:2) with 10 mM Hepes pH 7.2, 0.150 M NaCl and concentrated with AMICONULTRA™ 0.5 ml 10K concentrators. The samples were further diluted in the same buffer (1:2) and subsequently concentrated three times to yield a final concentration of around 125 mM MgCl₂, and 150 mM NaCl in 10 mM Hepes pH 7.2. Samples of the purified proteins as well as a commercially available batch of neurturin were analyzed using […], under non reducing conditions, and visualized via Coomassie staining.

B1: V5-tagged wild-type neurturin (ligand)
chain: ARGKPIPNPLLGLDSTSGARLGARPCGLRELEVRVSELGLGYASDETVLFRYCAGACEAAARVYDLGLRRLRQRRRLRRERVRAQPCCRPTAYEDEVSFLDAHSRYHTVHELSARECACV
notes: Secreted from transiently transfected CHO cells and used as crude conditioned medium; also called NRTN WT; E779
Consider B1, for which the binding result in assay [1] was “binds”.

B2: V5-tagged neurturin variant NV3 (ligand)
chain: ARGKPIPNPLLGLDSTSGARLGARPCGLRELEVRVSELGLGYASDETVLFRYCAGACEAAARVYDLGLRALAQARALRAERVRAQPCCRPTAYEDEVSFLDAHSRYHTVHELSARECACV
notes: Crude conditioned medium of transfected CHO cells; also called NRTN NV3; NV3 (from N3)
Take B2: the binding result in assay [1] is given as “binds”.

B3: V5-tagged neurturin variant NV4 (ligand)
chain: ARGKPIPNPLLGLDSTSGARLGARPCGLRELEVRVSELGLGYASDETVLFRYCAGACEAAARVYDLGLARLQGQGALVGSRVRAQPCCRPTAYEDEVSFLDAHSRYHTVHELSARECACV
notes: Crude conditioned medium of transfected CHO cells; also called NRTN NV4; NV4 (from N4)
As to B3, the binding result in assay [1] was “binds”.

B4: V5-tagged neurturin variant NV1 (ligand)
chain: ARGKPIPNPLLGLDSTSGARLGARPCGLRELEVRVSELGLGYASDETVLFRYCAGACEAAARVYDLGLRALRQARALRRERVRAQPCCRPTAYEDEVSFLDAHSRYHTVHELSARECACV
notes: Crude conditioned medium of transfected CHO cells; also called NRTN NV1; NV1 (from N1)
B4: the binding result in assay [1] is given as “binds”.

B5: V5-tagged neurturin variant NV2 (ligand)
chain: ARGKPIPNPLLGLDSTSGARLGARPCGLRELEVRVSELGLGYASDETVLFRYCAGACEAAARVYDLGLRRLAQRRRLRAEAVRAQPCCRPTAYEDEVSFLDAHSRYHTVHELSARECACV
notes: Crude conditioned medium of transfected CHO cells; also called NRTN NV2; NV2 (from N2)
As for B5, in assay [1], the binding result is reported as “binds”.

B6: NRTN WT (ligand)
mature neurturin monomer of the disulfide-linked homodimer: ARLGARPCGLRELEVRVSELGLGYASDETVLFRYCAGACEAAARVYDLGLRRLRQRRRLRRERVRAQPCCRPTAYEDEVSFLDAHSRYHTVHELSARECACV
notes: also called purified untagged mature wild type neurturin made by the same method as the variants
On to B6, for which the binding result in assay [2] was “binds”.

B7: neurturin variant N1 (untagged, purified) (ligand)
chain: ARLGARPCGLRELEVRVSELGLGYASDETVLFRYCAGACEAAARVYDLGLRALRQARALRRERVRAQPCCRPTAYEDEVSFLDAHSRYHTVHELSARECACV
notes: Dimeric protein; also called NRTN N1; neurturin mutant N1
For B7, the binding result in assay [2] is “binds”.

B8: neurturin variant N4 (untagged, purified) (ligand)
chain: ARLGARPCGLRELEVRVSELGLGYASDETVLFRYCAGACEAAARVYDLGLARLQGQGALVGSRVRAQPCCRPTAYEDEVSFLDAHSRYHTVHELSARECACV
notes: Dimeric protein; also called NRTN N4; neurturin mutant N4
Consider B8, for which the binding result in assay [2] was “binds”.

B9: neurturin variant N3 (untagged, purified) (ligand)
chain: ARLGARPCGLRELEVRVSELGLGYASDETVLFRYCAGACEAAARVYDLGLRALAQARALRAERVRAQPCCRPTAYEDEVSFLDAHSRYHTVHELSARECACV
notes: Dimeric protein; also called NRTN N3; neurturin mutant N3
As to B9, the binding result in assay [2] was “binds”.

B10: neurturin variant N2 (untagged, purified) (ligand)
chain: ARLGARPCGLRELEVRVSELGLGYASDETVLFRYCAGACEAAARVYDLGLRRLAQRRRLRAEAVRAQPCCRPTAYEDEVSFLDAHSRYHTVHELSARECACV
notes: Dimeric protein; also called NRTN N2; neurturin mutant N2
Turning to B10, the binding result in assay [2] is “binds”.

The values are drawn from patent US20110312883A1 (NTF THERAPEUTICS, published 2011).
